Patent US20090082299A1 (US Dept. of Health and Human Services, published 2009)

Target: human IL-15 expressed from plasmid hIL15tPA6 (human IL-15opt1-tPA6; improved IL-15 with tPA6 SIGPRO peptide) (human, UniProt P40933 49-162)
Experiment: cell-based or functional assay

human IL-15 expressed from plasmid hIL15tPA6 (human IL-15opt1-tPA6; improved IL-15 with tPA6 SIGPRO peptide), sequence (P40933 other isoform, or with tags, fused parts or gaps limits assumed): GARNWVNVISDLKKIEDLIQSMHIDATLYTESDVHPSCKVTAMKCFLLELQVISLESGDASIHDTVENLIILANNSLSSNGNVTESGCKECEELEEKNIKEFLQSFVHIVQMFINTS

Row | Binder | total increase in IL-15 steady-state levels on co-expression in 293 cells, ELISA (FIG. 45A) [fold]
1 | human IL-15 Receptor alpha, whole / full length (plasmid AG79, huIL15RaOPT) (receptor) ITCPPPMSVEHADIWVKSYSLYSRERYICNSGFKRKAGTSSLTECVLNKATNVAHWTTPSLKCIRDPALVHQRPAPPSTVTTAGVTPQPESLSPSGKEPAASSPSSNNTAATTAAIVPGSQLMPSKSPSTGTTEISSHESSHGTPSQTTAKNWELTASASHQPPGVYPQGHSDTTVAISTSTVLLCGLSAVSLLACYLKSRQTPPLASVEMEAMEALPVTWGTSSRDEDLENCSHHL | 4
2 | human soluble IL-15 Receptor alpha (extracellular part; plasmid AG98, hu sIL15RaOPT) (receptor) ITCPPPMSVEHADIWVKSYSLYSRERYICNSGFKRKAGTSSLTECVLNKATNVAHWTTPSLKCIRDPALVHQRPAPPSTVTTAGVTPQPESLSPSGKEPAASSPSSNNTAATTAAIVPGSQLMPSKSPSTGTTEISSHESSHGTPSQTTAKNWELTASASHQPPGVYPQGHSDTT | 7
